In this assay the target is mAb X’ (E262K sequence variant containing mAb X). The experiment in a line: ELISA; plates coated with serially diluted mAb, constant amount of C1q added, detected with biotinylated anti-C1q antibody and HRP-streptavidin; relative binding by parallel line analysis against mAb X.

As to C1q protein (complex), the relative binding against mAb X turned out to be 0.95.

These data come from paper PMC8225904.
